# Experimental data from patent US12559537B2, “Nucleic acid encoding NKP30 receptor targeted therapeutics” (THE TRUSTEES OF DARTMOUTH COLLEGE, priority 2011, dated 2026).
# Test system: K562 target cells
# Assay: Cytotoxicity-blocking with soluble NKp30 (LDH release)
# Type: cell-based, human
# Settings: 10 μg/ml, K562 targets, E:T 5:1, 5-h LDH release
# Protocol: FIG. 7C further illustrates that lysis was mediated by the chimeric NKp30 constructs. […] Effector T cells modified with wtNKp30 or NKp30-CD28-3ζ were cocultured with target cells K562 in the presence of 10 μg/ml NKp30-mIgG2a or mouse IgG at a ratio of 5:1; the percentage of specific lysis was determined after a 5-h LDH-release assay. The data are presented as mean+/−SD and are representative of two independent experiments.
# The cytotoxic activity of chimeric NKp30-modified human T cells against various tumor cell lines was determined. […] To confirm that chimeric NKp30-mediated killing is dependent on the interactions between NKp30 and its ligands, soluble NKp30 (NKp30-mIgG2a) was incubated with K562 target cells prior to the coculture with T cells.
# Cytotoxicity of T cells against target cells was determined by an LDHrelease assay using the CytoTox 96 Non-Radioactive Cytotoxicity Assay kit (Promega, Madison, WI). Specific lysis was determined using the following equation: percentage of specific lysis=[(experimental−effector spontaneous−target spontaneous)/(target maximum−target spontaneous)]×100. In the cytotoxicity-blocking experiments, K562 target cells were preincubated with a soluble NKp30 receptor, NKp30-mIgG2a ([…]), for 30 min before coculture with T cells in an LDH-release assay.
substance,measurement,value
NKp30-mIgG2a: soluble fusion protein: extracellular portion of human NKp30 fused to the mouse IgG2a hinge-CH2-CH3 portion,NKp30-28-3ζ-bearing T cell-mediated cytotoxicity in presence of soluble NKp30,significantly reduced
